Experimental data published in patent publication EP0938497B1.

Biological target: IgG
Experiment: microcalorimetry and surface plasmon resonance

Kd: 100 µM
Substance: locked helix peptide FNM(5)QQRRFY(6)ALH, cyclized (Fig. 11)
